Assay results: paper PMC10491584, “Structural convergence endows nuclear transport receptor Kap114p with a transcriptional repressor function toward TATA-binding protein” (Nature Communications, 2023)

Columns and labels:
[1] = biological target: T1, Kap114pΔ(848-875) (S. cerevisiae, UniProt P53067 1-1004, Δ848-875); assay: ITC; MicroCal iTC200, 25 °C, 20 mM HEPES pH 7.4, 150 mM NaCl; high concentration: 50 µM wild type or mutant Kap114p in the sample cell, 500 µM wild type or mutant yTBPC in the syringe; triplicate; conditions: both partners purified
T1 construct: this construct is not in the list of mutants of the cloning methods; also called Δ(a.a.848-875); GST-Kap114p (Δ848-875); source: E. coli Rosetta, purified (GST resin, MonoQ, Superdex 200)
T1 sequence (looked up): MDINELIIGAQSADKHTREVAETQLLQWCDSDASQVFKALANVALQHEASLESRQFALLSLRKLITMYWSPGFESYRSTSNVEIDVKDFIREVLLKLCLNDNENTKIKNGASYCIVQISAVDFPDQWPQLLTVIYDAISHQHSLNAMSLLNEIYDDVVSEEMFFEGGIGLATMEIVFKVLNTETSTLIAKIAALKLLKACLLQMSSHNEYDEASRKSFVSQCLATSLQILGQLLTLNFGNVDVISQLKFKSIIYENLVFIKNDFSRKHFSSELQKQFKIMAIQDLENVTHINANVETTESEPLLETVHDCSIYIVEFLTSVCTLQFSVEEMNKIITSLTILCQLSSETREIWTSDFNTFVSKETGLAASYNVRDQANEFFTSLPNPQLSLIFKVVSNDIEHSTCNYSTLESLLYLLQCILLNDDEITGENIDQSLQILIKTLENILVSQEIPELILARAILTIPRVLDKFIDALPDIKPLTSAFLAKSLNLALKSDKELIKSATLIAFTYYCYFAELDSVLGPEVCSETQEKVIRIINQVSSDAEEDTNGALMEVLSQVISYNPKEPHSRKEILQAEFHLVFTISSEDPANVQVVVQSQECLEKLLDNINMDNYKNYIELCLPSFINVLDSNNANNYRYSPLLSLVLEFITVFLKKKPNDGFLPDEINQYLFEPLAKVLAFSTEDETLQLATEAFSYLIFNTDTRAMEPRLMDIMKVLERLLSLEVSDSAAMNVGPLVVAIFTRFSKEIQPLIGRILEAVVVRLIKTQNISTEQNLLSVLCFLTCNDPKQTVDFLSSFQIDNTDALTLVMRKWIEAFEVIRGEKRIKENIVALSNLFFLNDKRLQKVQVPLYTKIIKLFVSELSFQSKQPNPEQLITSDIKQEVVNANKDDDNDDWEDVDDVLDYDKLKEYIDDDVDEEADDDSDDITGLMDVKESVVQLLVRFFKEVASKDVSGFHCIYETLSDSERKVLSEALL

[2] = biological target: T2, Kap114pΔ(Y933) (S. cerevisiae, UniProt P53067 1-1004, ΔY933); assay: as above; conditions: both partners purified
T2 construct: Kap114p, S. cerevisiae, full length with residue Y933 deleted; also called GST-Kap114p (Δ933); source: E. coli Rosetta, purified (GST resin, MonoQ, Superdex 200)
T2 sequence (looked up): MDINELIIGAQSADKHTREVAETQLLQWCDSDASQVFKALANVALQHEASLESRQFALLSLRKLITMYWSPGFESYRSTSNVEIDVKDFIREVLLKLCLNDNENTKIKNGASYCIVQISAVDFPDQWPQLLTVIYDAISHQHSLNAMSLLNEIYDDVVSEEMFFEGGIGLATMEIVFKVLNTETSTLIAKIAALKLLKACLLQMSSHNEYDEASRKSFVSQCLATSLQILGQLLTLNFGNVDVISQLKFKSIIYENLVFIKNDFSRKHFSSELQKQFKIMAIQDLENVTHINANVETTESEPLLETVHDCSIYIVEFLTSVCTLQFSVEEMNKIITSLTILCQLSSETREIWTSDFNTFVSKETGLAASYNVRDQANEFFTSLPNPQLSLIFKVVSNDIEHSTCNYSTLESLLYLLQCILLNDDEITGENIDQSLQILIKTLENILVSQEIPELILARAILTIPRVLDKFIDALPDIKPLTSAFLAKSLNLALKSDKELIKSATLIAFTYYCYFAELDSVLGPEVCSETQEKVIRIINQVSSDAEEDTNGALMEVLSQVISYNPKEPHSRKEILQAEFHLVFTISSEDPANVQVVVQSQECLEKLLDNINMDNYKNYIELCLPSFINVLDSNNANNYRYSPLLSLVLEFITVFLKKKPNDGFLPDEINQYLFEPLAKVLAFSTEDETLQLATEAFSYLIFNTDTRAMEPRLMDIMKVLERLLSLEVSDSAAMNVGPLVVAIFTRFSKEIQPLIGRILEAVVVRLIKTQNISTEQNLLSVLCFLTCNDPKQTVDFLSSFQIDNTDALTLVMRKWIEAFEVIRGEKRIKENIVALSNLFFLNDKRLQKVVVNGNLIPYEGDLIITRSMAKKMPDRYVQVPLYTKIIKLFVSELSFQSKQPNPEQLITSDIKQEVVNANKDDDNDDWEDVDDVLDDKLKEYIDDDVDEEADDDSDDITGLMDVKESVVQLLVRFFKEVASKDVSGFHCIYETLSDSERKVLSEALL

Kd [1]: 1.7 nM
Kd [2]: 7.7 nM
B1: yTBP^C wild type (core domain of yeast TATA-box binding protein, a.a. 61-240) (domain or fragment, S. cerevisiae, UniProt P13393 61-240, looked up)
chain: SGIVPTLQNIVATVTLGCRLDLKTVALHARNAEYNPKRFAAVIMRIREPKTTALIFASGKMVVTGAKSEDDSKLASRKYARIIQKIGFAAKFTDFKIQNIVGSCDVKFPIRLEGLAFSHGTFSSYEPELFPGLIYRMVKPKIVLLIFVSGKIVLTGAKQREEIYQAFEAIYPVLSEFRKM
notes: modified pET28a, 6xHis tag followed by a PreScission site; also called yTBPC WT; His-yTBP (61-240); source: E. coli Rosetta, purified (Ni-NTA, HiTrap SP, Superdex 75); not shown: His6, N-terminal, cleaved
